The labels stand for the following.
B1: A00790068 (VHH)
VHH: EVQLVESGGGLVQPGGSLRLSCAASGFILDYYAIGWFRQAPGKEREGVLCIDASDDITYYADSVKGRFTISRDNSKNTVYLQMNSLRPEDTGVYYCATPIGLSSSCLLEYDYDYWGQGTLVTVSS
notes: the entry as printed already holds the 3xFLAG-His6 tag; also called 04E09 (A74S, K83R, Q108L)
B2: A00790069 (VHH)
VHH: B1 VHH with G92A
notes: the entry as printed already holds the 3xFLAG-His6 tag; also called 04E09 (A74S, K83R, G88A, Q108L)
B3: A00790067 (VHH)
VHH: VQLVESGGGLVQPGGSLRLSCAASGFILDYYAIGWFRQAPGKEREGVLCIDASDDITYYADSVKGRFTISRDNAKNTVYLQMNSLKPEDTGVYYCATPIGLSSSCLLEYDYDYWGQGTLVTVSS
notes: the entry as printed already holds the 3xFLAG-His6 tag; also called 04E09 (Q108L)
B4: 04E09 (L49S) (SEQ ID NO: 23) tagged with 3xFlag-His6 (VHH)
VHH: B1 VHH with L49S, S75A, R87K
B5: A00790105 tagged with 3xFlag-His6 (VHH)
VHH: B1 VHH with E1D, G92A
notes: also called 04E09 (E1D, A74S, K83R, G88A, Q108L)
B6: A007900184 (33H10-3xFLAG-His6) (VHH)
VHH: EVQLVESGGGLVQAGGSLRLSCAASGFTFDDYAIGWFRQAPGEEREGVSSISSTYGLTYYADSVKGRFTISSSNAKNTVYLQMNNLKPEDTAVYYCAATPIERLGLDAYEYDYWGQGTLVTVSS
notes: the entry holds the tag; also called A007900184 (wt)
B7: A007901249 (VHH)
VHH: B6 VHH with A14P, E46L, S73D, A75S, N85S, K87R, E102G, R103L, L104I
notes: 33H10 variant, 3xFLAG-His6 tagged; the entry holds the tag; also called monovalent form of A007901259
B8: A007901247 (VHH)
VHH: B6 VHH with A14P, E43K, S73D, A75S, N85S, K87R, E102G, R103L, L104I
notes: 33H10 variant, 3xFLAG-His6 tagged; the entry holds the tag
B9: A007901251 (VHH)
VHH: B6 VHH with A14P, E43K, E46L, S73D, A75S, N85S, K87R, E102G, R103L, L104I
notes: as for B8
B10: A007901248 (VHH)
VHH: B6 VHH with A14P, T28A, E43K, S73D, A75S, N85S, K87R, E102G, R103L, L104I
notes: as for B8
B11: A007901246 (VHH)
VHH: B6 VHH with A14P, T28A, S73D, A75S, N85S, K87R, E102G, R103L, L104I
notes: 33H10 variant, 3xFLAG-His6 tagged; the entry holds the tag; also called monovalent form of A007901256
B12: A007901252 (VHH)
VHH: EVQLVESGGGLVQPGGSLRLSCAASGFAFDDYAIGWFRQAPGKERLGVSSISSTYGLTYYADSVKGRFTISSDNSKNTVYLQMNSLRPEDTAVYYCAATPIGLIGLDAYEYDYWGQGTLVTVSS
notes: as for B8
B13: A007901245 (VHH)
VHH: B12 VHH with A28T, K43E, L46E
notes: 33H10 variant, 3xFLAG-His6 tagged; the entry holds the tag; also called monovalent form of A007901255
B14: A007901250 (VHH)
VHH: B12 VHH with K43E
notes: 33H10 variant, 3xFLAG-His6 tagged; the entry holds the tag; also called monovalent form of A007901260
B15: A007901253 (VHH)
VHH: B12 VHH with A28T, K43E, L46E, S63P
notes: as for B8
B16: 04E09 (C50S/C100bG) (SEQ ID NO: 24) tagged with 3xFlag-His6 (VHH)
VHH: B1 VHH with C50S, S75A, R87K, C106G
B17: A007900744 (VHH)
VHH: VQLVESGGGLVQPGGSLRLSCAASGFTFDDYAIGWFRQAPGEEREGVSSISSTYGLTYYADSVKGRFTISRSNSKNTVYLQMNSLKPEDTAVYYCAATPIERLGLDAYEYDYWGQGTLVTVSS
notes: 33H10 variant; the entry holds the 3xFLAG-His6 tag
B18: A007900750 (VHH)
VHH: B6 VHH with A14P, E43K, S72R, A75S
notes: as for B17
B19: A007900749 (VHH)
VHH: B6 VHH with A14P, E43K, S73D, A75S, N85S
notes: as for B17
B20: A007900746 (VHH)
VHH: B6 VHH with A14P, E43K, A75S
notes: as for B17
B21: A007900742 (VHH)
VHH: B6 VHH with A14P, S72R, A75S
notes: as for B17
B22: A007900745 (VHH)
VHH: B6 VHH with A14P, S72R, S73D, A75S, N85S
notes: as for B17
B23: A007900747 (VHH)
VHH: B6 VHH with A14P, E43K, A75S, N85S
notes: as for B17
B24: A007900753 (VHH)
VHH: B6 VHH with A14P, E43K, S72R, S73D, A75S, N85S
notes: as for B17
B25: A007900751 (VHH)
VHH: B6 VHH with A14P, E43K, S72R, S73D, A75S
notes: as for B17
B26: A007900752 (VHH)
VHH: B6 VHH with A14P, E43K, S72R, A75S, N85S
notes: as for B17
B27: A007900740 (VHH)
VHH: B6 VHH with A14P, S73D, A75S
notes: as for B17
B28: A007900748 (VHH)
VHH: B6 VHH with A14P, E43K, S73D, A75S
notes: as for B17
B29: A007900739 (VHH)
VHH: B6 VHH with A14P, A75S, N85S
notes: as for B17
B30: A007900738 (VHH)
VHH: B6 VHH with A14P, A75S
notes: as for B17
B31: A007900741 (VHH)
VHH: B6 VHH with A14P, S73D, A75S, N85S
notes: as for B17
B32: A007900743 (VHH)
VHH: B6 VHH with A14P, S72R, S73D, A75S
notes: as for B17

Usually IC50 stands for the concentration that gives 50% inhibition. As a reminder, the Kd is the constant that tells how readily two partners part at equilibrium. The koff is the first-order rate constant of dissociation. What is called kon is a measure of how fast the partners come together. What is called % inhibition is the drop in the measured response relative to a control, in per cent.

Changes are numbered by the printed parent chain. Names and notes keep the numbering of the source.

T3 sequence (A0M8R7 25-1381 S170N/I621T limits assumed): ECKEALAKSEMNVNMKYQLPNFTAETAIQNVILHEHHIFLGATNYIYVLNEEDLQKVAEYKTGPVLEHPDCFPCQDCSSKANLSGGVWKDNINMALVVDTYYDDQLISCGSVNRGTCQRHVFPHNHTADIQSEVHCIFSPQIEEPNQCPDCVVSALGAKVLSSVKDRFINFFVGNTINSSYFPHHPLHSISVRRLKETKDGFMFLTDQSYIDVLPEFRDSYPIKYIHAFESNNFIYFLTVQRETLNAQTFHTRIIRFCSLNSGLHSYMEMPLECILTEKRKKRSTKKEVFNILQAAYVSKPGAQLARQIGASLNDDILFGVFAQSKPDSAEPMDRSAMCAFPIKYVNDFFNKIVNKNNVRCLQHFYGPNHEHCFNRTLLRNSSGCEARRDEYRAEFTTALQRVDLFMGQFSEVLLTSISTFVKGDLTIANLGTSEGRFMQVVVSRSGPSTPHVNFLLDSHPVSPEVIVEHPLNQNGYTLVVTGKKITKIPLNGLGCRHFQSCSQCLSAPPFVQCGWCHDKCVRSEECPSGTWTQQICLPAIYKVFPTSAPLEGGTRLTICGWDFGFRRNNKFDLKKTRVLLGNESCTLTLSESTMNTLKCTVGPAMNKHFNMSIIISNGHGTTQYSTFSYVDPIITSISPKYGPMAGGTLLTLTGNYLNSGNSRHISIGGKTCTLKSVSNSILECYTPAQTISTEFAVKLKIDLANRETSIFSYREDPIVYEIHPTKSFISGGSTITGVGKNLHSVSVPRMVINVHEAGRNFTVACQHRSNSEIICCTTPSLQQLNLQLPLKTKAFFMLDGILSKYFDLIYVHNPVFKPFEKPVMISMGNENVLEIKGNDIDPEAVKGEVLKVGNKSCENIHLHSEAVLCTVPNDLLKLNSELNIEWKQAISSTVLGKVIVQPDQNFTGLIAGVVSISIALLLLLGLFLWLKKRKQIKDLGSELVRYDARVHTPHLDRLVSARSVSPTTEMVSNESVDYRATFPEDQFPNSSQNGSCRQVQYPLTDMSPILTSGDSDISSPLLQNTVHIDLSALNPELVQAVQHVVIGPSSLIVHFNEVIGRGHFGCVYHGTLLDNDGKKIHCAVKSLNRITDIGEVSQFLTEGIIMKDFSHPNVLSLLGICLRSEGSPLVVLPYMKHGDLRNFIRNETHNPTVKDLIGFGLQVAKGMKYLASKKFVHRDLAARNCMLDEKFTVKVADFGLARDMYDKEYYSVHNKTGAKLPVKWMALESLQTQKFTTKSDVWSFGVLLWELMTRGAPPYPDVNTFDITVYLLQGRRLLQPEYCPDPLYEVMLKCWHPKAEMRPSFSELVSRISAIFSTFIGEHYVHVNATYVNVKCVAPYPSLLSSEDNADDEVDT

For one experiment, the target named is T1, recombinant human c-Met/Fc chimera (R&D systems) (human).
T1 construct: R&D Systems 358-MT/CF, expressed in NS0 cells; also called hc-Met/Fc; hu c-Met/Fc
T1 sequence (chain, as listed by the source mutant limits assumed): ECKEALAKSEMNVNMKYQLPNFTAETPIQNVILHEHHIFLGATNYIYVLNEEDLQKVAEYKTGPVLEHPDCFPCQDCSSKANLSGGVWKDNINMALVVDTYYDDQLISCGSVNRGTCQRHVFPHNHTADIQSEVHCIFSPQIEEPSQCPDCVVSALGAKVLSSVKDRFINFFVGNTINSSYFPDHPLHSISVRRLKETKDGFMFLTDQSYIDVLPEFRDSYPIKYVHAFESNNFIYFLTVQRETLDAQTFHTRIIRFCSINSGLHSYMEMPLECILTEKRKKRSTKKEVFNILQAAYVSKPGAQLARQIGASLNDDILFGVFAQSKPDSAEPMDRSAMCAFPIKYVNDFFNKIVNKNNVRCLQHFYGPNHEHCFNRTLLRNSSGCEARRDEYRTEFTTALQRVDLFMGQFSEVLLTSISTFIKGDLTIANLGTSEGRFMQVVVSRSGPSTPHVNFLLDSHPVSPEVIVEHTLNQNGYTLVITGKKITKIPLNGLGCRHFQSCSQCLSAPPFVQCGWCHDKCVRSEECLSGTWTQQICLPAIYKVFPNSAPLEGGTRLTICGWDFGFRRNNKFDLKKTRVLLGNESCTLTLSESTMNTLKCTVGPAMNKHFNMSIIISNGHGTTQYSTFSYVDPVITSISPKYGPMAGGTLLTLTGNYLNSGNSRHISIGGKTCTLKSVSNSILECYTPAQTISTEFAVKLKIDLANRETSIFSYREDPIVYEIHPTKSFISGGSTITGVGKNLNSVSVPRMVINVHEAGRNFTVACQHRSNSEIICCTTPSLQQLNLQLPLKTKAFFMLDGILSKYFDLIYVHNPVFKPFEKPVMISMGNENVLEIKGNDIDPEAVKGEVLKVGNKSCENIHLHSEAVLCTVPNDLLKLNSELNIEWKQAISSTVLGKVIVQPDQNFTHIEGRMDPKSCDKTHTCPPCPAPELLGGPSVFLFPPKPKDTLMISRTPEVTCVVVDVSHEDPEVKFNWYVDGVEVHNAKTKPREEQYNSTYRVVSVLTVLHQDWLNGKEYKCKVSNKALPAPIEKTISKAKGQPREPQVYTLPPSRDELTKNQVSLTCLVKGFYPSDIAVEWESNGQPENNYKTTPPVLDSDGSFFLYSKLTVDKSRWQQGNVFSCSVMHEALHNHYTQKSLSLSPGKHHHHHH
Description: HGF-competition Alphascreen, EXP 1, second value. (In general: Bead proximity is the source of the signal in Alpha formats.)
In the case of B1, the concentration for half-maximal inhibition (IC50) turned out to be 0.072 nM.
Take B2: the 50% inhibitory concentration (IC50) stood at 0.046 nM.
On the same count and under the same terms, the result for B3 reads 0.069 nM.

A further experiment deals with T2, Human c-Met (human, UniProt P08581 25-1390). Briefly: cell-based or functional assay.
T2 sequence (P08581 25-1390 limits assumed): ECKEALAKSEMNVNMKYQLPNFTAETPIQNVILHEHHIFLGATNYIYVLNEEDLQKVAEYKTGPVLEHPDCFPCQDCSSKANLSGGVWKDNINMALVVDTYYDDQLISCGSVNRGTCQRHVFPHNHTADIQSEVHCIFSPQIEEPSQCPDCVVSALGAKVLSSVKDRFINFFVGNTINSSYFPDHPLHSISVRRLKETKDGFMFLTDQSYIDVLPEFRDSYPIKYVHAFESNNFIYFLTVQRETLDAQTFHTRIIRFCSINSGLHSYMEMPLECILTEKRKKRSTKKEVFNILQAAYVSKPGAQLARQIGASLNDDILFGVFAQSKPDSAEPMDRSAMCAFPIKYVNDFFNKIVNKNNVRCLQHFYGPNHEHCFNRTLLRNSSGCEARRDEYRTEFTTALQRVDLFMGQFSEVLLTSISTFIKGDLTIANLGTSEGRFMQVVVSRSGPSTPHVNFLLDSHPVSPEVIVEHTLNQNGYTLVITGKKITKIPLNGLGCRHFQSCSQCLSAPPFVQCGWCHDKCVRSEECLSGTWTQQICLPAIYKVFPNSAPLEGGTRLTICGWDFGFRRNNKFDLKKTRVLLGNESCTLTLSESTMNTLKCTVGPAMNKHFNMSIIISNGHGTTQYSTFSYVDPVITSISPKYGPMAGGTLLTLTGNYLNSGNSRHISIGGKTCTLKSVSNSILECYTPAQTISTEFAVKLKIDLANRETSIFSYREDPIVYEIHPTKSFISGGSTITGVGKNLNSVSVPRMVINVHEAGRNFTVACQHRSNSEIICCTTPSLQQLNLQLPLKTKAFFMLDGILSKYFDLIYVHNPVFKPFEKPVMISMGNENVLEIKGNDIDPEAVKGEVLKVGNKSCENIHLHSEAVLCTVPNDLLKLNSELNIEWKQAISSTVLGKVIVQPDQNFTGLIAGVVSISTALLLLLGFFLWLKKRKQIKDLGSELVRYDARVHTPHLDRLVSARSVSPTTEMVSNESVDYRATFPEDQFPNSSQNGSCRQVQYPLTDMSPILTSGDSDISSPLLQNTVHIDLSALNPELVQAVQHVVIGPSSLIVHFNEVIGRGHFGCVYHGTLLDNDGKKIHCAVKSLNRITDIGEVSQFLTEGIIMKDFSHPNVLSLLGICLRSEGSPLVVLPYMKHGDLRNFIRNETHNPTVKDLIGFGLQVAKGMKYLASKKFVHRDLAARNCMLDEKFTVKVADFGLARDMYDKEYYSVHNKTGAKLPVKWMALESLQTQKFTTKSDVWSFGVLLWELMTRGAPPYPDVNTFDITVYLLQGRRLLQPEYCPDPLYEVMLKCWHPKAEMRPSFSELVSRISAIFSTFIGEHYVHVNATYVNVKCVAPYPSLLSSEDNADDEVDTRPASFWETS
B4: the “IC50, HGF-dependent c-Met phosphorylation in A549 tumor cells” value stood at 3.1 nM.

The target in the next experiment is T2, Human c-Met. Briefly: cell-based or functional assay. The source holds these as a separate data set.
As to B1, the “IC50, c-Met phosphorylation, EXP 1” value came to 1.96 nM.
In the case of B5, the “IC50, c-Met phosphorylation, EXP 2” value was determined as 2.33 nM.
With B2, the “IC50, c-Met phosphorylation, EXP 1” value was determined as 2.05 nM and the “IC50, c-Met phosphorylation, EXP 2” value is 2.45 nM.
As for B3, the “IC50, c-Met phosphorylation, EXP 1” value was determined as 2.21 nM.

In another experiment the target is T1, recombinant human c-Met/Fc chimera (R&D …). Description: HGF-competition Alphascreen, EXP 2.
For the molecule B5, the IC50 was determined as 0.061 nM.
For B2, the 50% inhibitory concentration (IC50) is 0.071 nM.

Another experiment has the same target. Description: HGF-competition Alphascreen, EXP 1.
On to B1, for which the concentration for half-maximal inhibition (IC50) was determined as 0.104 nM.
Still for that read-out and setting: to B2 belongs 0.107 nM; to B3, 0.069 nM.

Another experiment shares this target. Description: HGF-competition Alphascreen.
For the molecule B6, the half-inhibitory concentration (IC50) stood at 0.61 nM.
Same read-out and setting: the result for B7 reads 0.08 nM; that for B8, 0.27 nM; that for B9, 0.068 nM.
For B10, the IC50 stood at 0.17 nM.
Turning to B11, the IC50 turned out to be 0.089 nM.
With B12, the IC50 turned out to be 0.12 nM.
Still for that read-out and setting: to B13 belongs 0.092 nM; to B14, 0.081 nM.
Turning to B15, the IC50 came out at 0.071 nM.

A further experiment shares this target. Briefly: SPR (ProteOn), c-Met/Fc captured on anti-human IgG(Fc). The method, then: (§1) Anti-human IgG(Fc) antibody (GE Healthcare) was immobilized on a ProteOn GLC Sensorchip (BioRad) via amine coupling on two ligand lanes at densities of approximately 5300 RU and 2700 RU. […] Regeneration of the surface was performed by an 80 seconds injection of 3M magnesium chloride at 25 μl/min (component of kit BR-1008-39, GE Healthcare).
The experiment was performed as described in Example 5.
For the molecule B16, the equilibrium dissociation constant (Kd) came to 4.09 nM, the koff was determined as 0.000788 s⁻¹ and the association rate constant (kon) was 193000 M⁻¹ s⁻¹.

The target of another experiment is T2, Human c-Met. Description: cell-based or functional assay. The source holds these as a separate data set.
Regarding B6, the “IC50, cell-based cMet phosphorylation assay” value came to 79 nM.
Turning to B7, the “IC50, cell-based cMet phosphorylation assay” value turned out to be 2.81 nM and the “IC50, cell-based proliferation assay, plate 2” value came out at 1.93 nM.
B8: the “IC50, cell-based cMet phosphorylation assay” value came out at 12.8 nM.
On the same count and under the same terms, the result for B9 reads 4.98 nM; that for B10, 11.5 nM.
As for B11, the “IC50, cell-based cMet phosphorylation assay” value is 3.44 nM and the “IC50, cell-based proliferation assay, plate 1” value (from here on “IC50 … plate 1”) worked out at 1.88 nM.
In the case of B12, the “IC50, cell-based cMet phosphorylation assay” value was 4.16 nM.
Take B13: the “IC50, cell-based cMet phosphorylation assay” value is 5.41 nM and the “IC50 … plate 1” value was 3.69 nM.
Take B14: the “IC50, cell-based cMet phosphorylation assay” value turned out to be 2.34 nM; the “IC50 … plate 1” value stood at 2.29 nM; the “IC50, cell-based proliferation assay, plate 2” value was 1.32 nM.
B15: the “IC50, cell-based cMet phosphorylation assay” value amounted to 4.84 nM.

Another experiment has as its target T3, cynomolgus c-Met (cynomolgus monkey, UniProt A0M8R7 25-1381 (Papio anubis entry)).
T3 construct: also called cynomolgus monkey c-Met; cyno c-Met
Description: competition FACS: 0.5 nM biotinylated HGF on BAF3 cells with cynomolgus c-Met. The method, then: Cells were analyzed on a FACSarray flow cytometer as described in earlier examples.
In the case of B4, the “% inhibition” value was 100% and the IC50 is 0.61 nM.
With B16, the “% inhibition” value is 100%, the half-maximal inhibitory concentration (IC50) was found to be 20 nM and the “factor of decrease in potency against parental SEQ ID NO: 7” value is ~35 fold.

Another experiment has as its target T1, recombinant human c-Met/Fc chimera (R&D …). Briefly: HGF-competition Alphascreen. This is another data set of the same source.
As for B17, the IC50 is 11 nM.
For B6, the IC50 stood at 0.78 nM.
Same read-out and setting: the result for B18 reads 42 nM.
Still for that read-out and setting: to B19 belongs 3.4 nM; to B20, 2.5 nM.
The same measure, in the same setting: the result for B21 reads 8.3 nM; that for B22, 18 nM.
Regarding B23, the IC50 came out at 2.5 nM.
On the same count and under the same terms, to B24 belongs 100 nM.
Still for that read-out and setting: to B25 belongs 100 nM.
As for B26, the IC50 turned out to be 31 nM.
As to B27, the half-inhibitory concentration (IC50) was 1.1 nM.
Still for that read-out and setting: to B28 belongs 3.5 nM; to B29, 0.58 nM; to B30, 0.69 nM.
The same measure, in the same setting: to B31 belongs 0.85 nM; to B32, 26 nM.

The target in a further experiment is T4, recombinant human CTLA4/Fc chimera (R&D Systems) (human, UniProt P16410 37-162, limits assumed).
T4 construct: control protein; not shown: Fc part of a bought protein, not described
T4 sequence (P16410 37-162 limits assumed, change not shown): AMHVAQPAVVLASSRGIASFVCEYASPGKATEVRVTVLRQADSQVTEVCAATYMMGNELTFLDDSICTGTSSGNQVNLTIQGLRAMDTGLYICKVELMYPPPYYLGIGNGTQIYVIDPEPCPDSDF
Briefly: SPR (ProteOn), CTLA4/Fc captured on anti-human IgG(Fc). The method, then:
as §1
Take B16: the binding result is “no binding”.

The target of a further experiment is T1, recombinant human c-Met/Fc chimera (R&D …). Description: modified HGF-competition Alphascreen: 0.4 nM biotinylated HGF, 0.016 nM cMet/Fc.
As to B7, the IC50 was 0.043 nM.
As for B11, the IC50 amounted to 0.048 nM.
On the same count and under the same terms, to B13 belongs 0.091 nM.
For the molecule B14, the IC50 is 0.035 nM.

These data come from patent publication US20120244164A1 (published 2012).
